From the supplement of paper PMC9112550, “Optimization of the antimicrobial peptide Bac7 by deep mutational scanning” (BMC Biology, 2022)

Tested on: Escherichia coli TOP10
Test: shrunken log2 fold change of peptide-encoding DNA abundance (4.5 h post-induction vs induction); higher = less antimicrobial activity (less host growth inhibition)
Details: time post-induction: 4.5 h; library: site-saturation at positions 5, 18, 19, 20
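Also: peptides expressed intracellularly from a pBAD plasmid library in pooled LB shake-flask culture, induced with 0.3% L-arabinose, DNA abundance read by NGS, three biological replicates, DESeq2 with apeglm shrinkage.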

Sequence: RRIRFRPPRLPRPRPRPDIFPRP
- shrunken log2 fold change: -0.396

Sequence: RRIRLRPPRLPRPRPRPRVHPRP
- shrunken log2 fold change: 0.0142

Sequence: RRIRVRPPRLPRPRPRPMYPPRP
- shrunken log2 fold change: -0.413

Sequence: RRIRLRPPRLPRPRPRPFSVPRP
- shrunken log2 fold change: -0.323

Sequence: RRIRKRPPRLPRPRPRPCFYPRP
- shrunken log2 fold change: -0.115

Sequence: RRIRTRPPRLPRPRPRPCNDPRP
- shrunken log2 fold change: -0.145

Sequence: RRIRCRPPRLPRPRPRPKGNPRP
- shrunken log2 fold change: -0.31

Sequence: RRIRVRPPRLPRPRPRPGAKPRP
- shrunken log2 fold change: 0.189

Sequence: RRIRYRPPRLPRPRPRPQNSPRP
- shrunken log2 fold change: -0.00968

Sequence: RRIRHRPPRLPRPRPRPILAPRP
- shrunken log2 fold change: 0.00463

Sequence: RRIRMRPPRLPRPRPRPELIPRP
- shrunken log2 fold change: 3.16

Sequence: RRIRKRPPRLPRPRPRPWIQPRP
- shrunken log2 fold change: -0.01

Sequence: RRIRMRPPRLPRPRPRPEVDPRP
- shrunken log2 fold change: 0.784

Sequence: RRIRMRPPRLPRPRPRPVSVPRP
- shrunken log2 fold change: 0.699

Sequence: RRIRGRPPRLPRPRPRPHQVPRP
- shrunken log2 fold change: 0.078

Sequence: RRIRARPPRLPRPRPRPAERPRP
- shrunken log2 fold change: 0.301

Sequence: RRIRRRPPRLPRPRPRPIHCPRP
- shrunken log2 fold change: -0.0105

Sequence: RRIRLRPPRLPRPRPRPVYYPRP
- shrunken log2 fold change: -0.633

Sequence: RRIRHRPPRLPRPRPRPDFLPRP
- shrunken log2 fold change: -0.0554

Sequence: RRIRTRPPRLPRPRPRPSKCPRP
- shrunken log2 fold change: -0.535

Sequence: RRIRYRPPRLPRPRPRPAPYPRP
- shrunken log2 fold change: -0.557

Sequence: RRIRSRPPRLPRPRPRPGTRPRP
- shrunken log2 fold change: -0.0748

Sequence: RRIRIRPPRLPRPRPRPIREPRP
- shrunken log2 fold change: -0.0273

Sequence: RRIRARPPRLPRPRPRPVVGPRP
- shrunken log2 fold change: 0.5

Sequence: RRIRYRPPRLPRPRPRPRTIPRP
- shrunken log2 fold change: -0.228

Sequence: RRIRVRPPRLPRPRPRPTHRPRP
- shrunken log2 fold change: 0.662

Sequence: RRIRLRPPRLPRPRPRPIEYPRP
- shrunken log2 fold change: -0.426

Sequence: RRIRFRPPRLPRPRPRPCICPRP
- shrunken log2 fold change: -0.136

Sequence: RRIRWRPPRLPRPRPRPTMTPRP
- shrunken log2 fold change: 0.328

Sequence: RRIRDRPPRLPRPRPRPNDYPRP
- shrunken log2 fold change: -0.197

Sequence: RRIRLRPPRLPRPRPRPANPPRP
- shrunken log2 fold change: -0.0638

Sequence: RRIRTRPPRLPRPRPRPEKYPRP
- shrunken log2 fold change: -0.156

Sequence: RRIRLRPPRLPRPRPRPYMNPRP
- shrunken log2 fold change: -1.06

Sequence: RRIRCRPPRLPRPRPRPDEVPRP
- shrunken log2 fold change: 0.00585

Sequence: RRIRQRPPRLPRPRPRPRWQPRP
- shrunken log2 fold change: 0.0759

Sequence: RRIRVRPPRLPRPRPRPINEPRP
- shrunken log2 fold change: -0.3

Sequence: RRIRTRPPRLPRPRPRPHEQPRP
- shrunken log2 fold change: 0.177

Sequence: RRIRMRPPRLPRPRPRPWYHPRP
- shrunken log2 fold change: -0.00277

Sequence: RRIRARPPRLPRPRPRPAMFPRP
- shrunken log2 fold change: -0.0337

Sequence: RRIRHRPPRLPRPRPRPEKKPRP
- shrunken log2 fold change: -0.00333

Sequence: RRIRMRPPRLPRPRPRPPQLPRP
- shrunken log2 fold change: 0.279

Sequence: RRIRHRPPRLPRPRPRPPMIPRP
- shrunken log2 fold change: -0.105

Sequence: RRIRSRPPRLPRPRPRPMYIPRP
- shrunken log2 fold change: -0.354

Sequence: RRIRYRPPRLPRPRPRPTVAPRP
- shrunken log2 fold change: 0.0691

Sequence: RRIRARPPRLPRPRPRPLTPPRP
- shrunken log2 fold change: 0.548

Sequence: RRIRERPPRLPRPRPRPFRMPRP
- shrunken log2 fold change: -0.3

Sequence: RRIRQRPPRLPRPRPRPNASPRP
- shrunken log2 fold change: -0.015

Sequence: RRIRPRPPRLPRPRPRPHWMPRP
- shrunken log2 fold change: 0.0365

Sequence: RRIRTRPPRLPRPRPRPAIHPRP
- shrunken log2 fold change: -0.384

Sequence: RRIRQRPPRLPRPRPRPQIHPRP
- shrunken log2 fold change: -0.246

Sequence: RRIRLRPPRLPRPRPRPQPRPRP
- shrunken log2 fold change: 0.67

Sequence: RRIRTRPPRLPRPRPRPHDCPRP
- shrunken log2 fold change: -0.00088

Sequence: RRIRFRPPRLPRPRPRPVPIPRP
- shrunken log2 fold change: -0.0344

Sequence: RRIRQRPPRLPRPRPRPFSQPRP
- shrunken log2 fold change: 0.0178

Sequence: RRIRDRPPRLPRPRPRPTPHPRP
- shrunken log2 fold change: 0.175

Sequence: RRIRRRPPRLPRPRPRPEYKPRP
- shrunken log2 fold change: -0.0169

Sequence: RRIRERPPRLPRPRPRPMSEPRP
- shrunken log2 fold change: 0.0552

Sequence: RRIRTRPPRLPRPRPRPNRDPRP
- shrunken log2 fold change: -0.0614

Sequence: RRIRQRPPRLPRPRPRPTVVPRP
- shrunken log2 fold change: -0.00822

Sequence: RRIRQRPPRLPRPRPRPRNPPRP
- shrunken log2 fold change: 0.375

Sequence: RRIRIRPPRLPRPRPRPHNYPRP
- shrunken log2 fold change: -0.376

Sequence: RRIRMRPPRLPRPRPRPEGNPRP
- shrunken log2 fold change: 0.182

Sequence: RRIRVRPPRLPRPRPRPTDFPRP
- shrunken log2 fold change: -0.0704

Sequence: RRIRNRPPRLPRPRPRPHYHPRP
- shrunken log2 fold change: -0.142

Sequence: RRIRQRPPRLPRPRPRPELAPRP
- shrunken log2 fold change: 0.577

Sequence: RRIRCRPPRLPRPRPRPCHCPRP
- shrunken log2 fold change: 0.00562

Sequence: RRIRCRPPRLPRPRPRPFIHPRP
- shrunken log2 fold change: -1.43

Sequence: RRIRGRPPRLPRPRPRPWWNPRP
- shrunken log2 fold change: -0.148

Sequence: RRIRERPPRLPRPRPRPLHSPRP
- shrunken log2 fold change: -0.0649

Sequence: RRIRDRPPRLPRPRPRPQKKPRP
- shrunken log2 fold change: -0.0848

Sequence: RRIRARPPRLPRPRPRPVRLPRP
- shrunken log2 fold change: 0.371

Sequence: RRIRCRPPRLPRPRPRPGAFPRP
- shrunken log2 fold change: 0.138

Sequence: RRIRFRPPRLPRPRPRPEKAPRP
- shrunken log2 fold change: 0.0584

Sequence: RRIRVRPPRLPRPRPRPDRRPRP
- shrunken log2 fold change: 0.206

Sequence: RRIRHRPPRLPRPRPRPYKNPRP
- shrunken log2 fold change: -0.646

Sequence: RRIRRRPPRLPRPRPRPVHKPRP
- shrunken log2 fold change: 0.092

Sequence: RRIRLRPPRLPRPRPRPPSTPRP
- shrunken log2 fold change: 0.00129

Sequence: RRIRSRPPRLPRPRPRPIMHPRP
- shrunken log2 fold change: -0.455

Sequence: RRIRRRPPRLPRPRPRPDPSPRP
- shrunken log2 fold change: 0.213

Sequence: RRIRRRPPRLPRPRPRPNYNPRP
- shrunken log2 fold change: -0.556

Sequence: RRIRPRPPRLPRPRPRPQMYPRP
- shrunken log2 fold change: -0.338

Sequence: RRIRSRPPRLPRPRPRPDSAPRP
- shrunken log2 fold change: 0.0412

Sequence: RRIRCRPPRLPRPRPRPAIVPRP
- shrunken log2 fold change: -0.37

Sequence: RRIRQRPPRLPRPRPRPYQDPRP
- shrunken log2 fold change: 0.00682

Sequence: RRIRPRPPRLPRPRPRPGSKPRP
- shrunken log2 fold change: -0.0791

Sequence: RRIRDRPPRLPRPRPRPPLAPRP
- shrunken log2 fold change: 0.448

Sequence: RRIRERPPRLPRPRPRPYFCPRP
- shrunken log2 fold change: -0.765

Sequence: RRIRNRPPRLPRPRPRPFYGPRP
- shrunken log2 fold change: -0.107

Sequence: RRIRHRPPRLPRPRPRPSVRPRP
- shrunken log2 fold change: -0.158

Sequence: RRIRRRPPRLPRPRPRPHNFPRP
- shrunken log2 fold change: -0.0578

Sequence: RRIRPRPPRLPRPRPRPSGEPRP
- shrunken log2 fold change: 0.126

Sequence: RRIRGRPPRLPRPRPRPLHNPRP
- shrunken log2 fold change: 0.249

Sequence: RRIRKRPPRLPRPRPRPSGVPRP
- shrunken log2 fold change: 0.005

Sequence: RRIRGRPPRLPRPRPRPTLDPRP
- shrunken log2 fold change: 0.93

Sequence: RRIRMRPPRLPRPRPRPDGYPRP
- shrunken log2 fold change: 0.818

Sequence: RRIRDRPPRLPRPRPRPMTDPRP
- shrunken log2 fold change: -0.109

Sequence: RRIRCRPPRLPRPRPRPNWGPRP
- shrunken log2 fold change: -0.0514

Sequence: RRIRTRPPRLPRPRPRPWSGPRP
- shrunken log2 fold change: -0.187

Sequence: RRIRCRPPRLPRPRPRPWGNPRP
- shrunken log2 fold change: -0.256

Sequence: RRIRSRPPRLPRPRPRPAHPPRP
- shrunken log2 fold change: 0.427

Sequence: RRIRQRPPRLPRPRPRPANCPRP
- shrunken log2 fold change: 0.0322

Sequence: RRIRERPPRLPRPRPRPMIGPRP
- shrunken log2 fold change: 0.015

Sequence: RRIRCRPPRLPRPRPRPEDSPRP
- shrunken log2 fold change: 0.00322

Sequence: RRIRYRPPRLPRPRPRPKGHPRP
- shrunken log2 fold change: -0.145

Sequence: RRIRYRPPRLPRPRPRPSLRPRP
- shrunken log2 fold change: -0.9

Sequence: RRIRLRPPRLPRPRPRPLTDPRP
- shrunken log2 fold change: 0.133

Sequence: RRIRPRPPRLPRPRPRPQCTPRP
- shrunken log2 fold change: -0.0867

Sequence: RRIRIRPPRLPRPRPRPSWQPRP
- shrunken log2 fold change: 0.144

Sequence: RRIRVRPPRLPRPRPRPIGQPRP
- shrunken log2 fold change: 0.0922

Sequence: RRIRPRPPRLPRPRPRPQRRPRP
- shrunken log2 fold change: -0.359

Sequence: RRIRHRPPRLPRPRPRPYPRPRP
- shrunken log2 fold change: -0.27

Sequence: RRIRRRPPRLPRPRPRPTYHPRP
- shrunken log2 fold change: 0.648

Sequence: RRIRHRPPRLPRPRPRPMMGPRP
- shrunken log2 fold change: -0.01

Sequence: RRIRQRPPRLPRPRPRPYNMPRP
- shrunken log2 fold change: -0.316

Sequence: RRIRHRPPRLPRPRPRPASTPRP
- shrunken log2 fold change: -0.357

Sequence: RRIRIRPPRLPRPRPRPYPWPRP
- shrunken log2 fold change: -1.06

Sequence: RRIRCRPPRLPRPRPRPPKFPRP
- shrunken log2 fold change: -0.0746

Sequence: RRIRSRPPRLPRPRPRPEYCPRP
- shrunken log2 fold change: 0.184

Sequence: RRIRLRPPRLPRPRPRPIWNPRP
- shrunken log2 fold change: 0.0155

Sequence: RRIRGRPPRLPRPRPRPWDGPRP
- shrunken log2 fold change: 0.486

Sequence: RRIRGRPPRLPRPRPRPCNSPRP
- shrunken log2 fold change: -0.0377

Sequence: RRIRIRPPRLPRPRPRPYPVPRP
- shrunken log2 fold change: -0.18

Sequence: RRIRVRPPRLPRPRPRPPQVPRP
- shrunken log2 fold change: 0.377

Sequence: RRIRRRPPRLPRPRPRPFRYPRP
- shrunken log2 fold change: 0.292

Sequence: RRIRCRPPRLPRPRPRPSYMPRP
- shrunken log2 fold change: -0.646

Sequence: RRIRRRPPRLPRPRPRPCGMPRP
- shrunken log2 fold change: 0.114

Sequence: RRIRGRPPRLPRPRPRPRKMPRP
- shrunken log2 fold change: 0.949

Sequence: RRIRMRPPRLPRPRPRPIRNPRP
- shrunken log2 fold change: 0.00101

Sequence: RRIRTRPPRLPRPRPRPKPKPRP
- shrunken log2 fold change: 0.349

Sequence: RRIRIRPPRLPRPRPRPDMWPRP
- shrunken log2 fold change: -0.271

Sequence: RRIRMRPPRLPRPRPRPKDAPRP
- shrunken log2 fold change: 2.02

Sequence: RRIRCRPPRLPRPRPRPQFGPRP
- shrunken log2 fold change: -0.233

Sequence: RRIRKRPPRLPRPRPRPNTAPRP
- shrunken log2 fold change: 0.159

Sequence: RRIRQRPPRLPRPRPRPHKMPRP
- shrunken log2 fold change: 0.246

Sequence: RRIRPRPPRLPRPRPRPVTIPRP
- shrunken log2 fold change: -0.344

Sequence: RRIRWRPPRLPRPRPRPTHDPRP
- shrunken log2 fold change: 0.196

Sequence: RRIRSRPPRLPRPRPRPVPQPRP
- shrunken log2 fold change: 0.0741

Sequence: RRIRWRPPRLPRPRPRPQLHPRP
- shrunken log2 fold change: 0.123

Sequence: RRIRPRPPRLPRPRPRPDRVPRP
- shrunken log2 fold change: 0.187

Sequence: RRIRARPPRLPRPRPRPPNDPRP
- shrunken log2 fold change: 0.459

Sequence: RRIRGRPPRLPRPRPRPCWHPRP
- shrunken log2 fold change: 0.357

Sequence: RRIRQRPPRLPRPRPRPDQWPRP
- shrunken log2 fold change: 0.129

Sequence: RRIRARPPRLPRPRPRPVTHPRP
- shrunken log2 fold change: 0.105

Sequence: RRIRGRPPRLPRPRPRPFALPRP
- shrunken log2 fold change: 0.278

Sequence: RRIRKRPPRLPRPRPRPYKWPRP
- shrunken log2 fold change: 0.000411

Sequence: RRIRGRPPRLPRPRPRPMKTPRP
- shrunken log2 fold change: 0.494

Sequence: RRIRMRPPRLPRPRPRPWCNPRP
- shrunken log2 fold change: -0.016

Sequence: RRIRSRPPRLPRPRPRPGHCPRP
- shrunken log2 fold change: 0.0298

Sequence: RRIRFRPPRLPRPRPRPWVCPRP
- shrunken log2 fold change: 0.029

Sequence: RRIRHRPPRLPRPRPRPHFFPRP
- shrunken log2 fold change: -0.0737
